# Data: patent publication US20220380407A1 (WASHINGTON UNIVERSITY, published 2022)
# Read-outs that look alike come from different tables or passages of the source. Positions of bridges follow the written chain, without caps; N, C: chain ends. *: point of attachment. X2 = 1‑(ethylsulfonyl)piperidin‑4‑yl carbamate, CCS(=O)(=O)N1CCC(OC(=O)*)CC1; kbt = C-terminal Arg ketobenzothiazole
# What was measured:
# Test in all cases: cell-based or functional assay
# [1] = biological target: T1, KLK5 (#1108-SE-010, R&D Systems) (UniProt Q9Y337 23-293, limits assumed)
# T1 sequence (looked up): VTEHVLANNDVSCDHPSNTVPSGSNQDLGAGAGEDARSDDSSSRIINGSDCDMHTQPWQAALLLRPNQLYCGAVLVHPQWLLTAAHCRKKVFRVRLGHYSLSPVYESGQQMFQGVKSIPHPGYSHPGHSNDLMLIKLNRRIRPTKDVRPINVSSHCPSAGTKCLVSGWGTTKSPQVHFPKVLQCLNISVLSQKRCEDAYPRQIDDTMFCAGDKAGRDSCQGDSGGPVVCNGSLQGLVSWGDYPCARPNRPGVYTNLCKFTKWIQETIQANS
# [2] = biological target: T2, human TMPRSS2 (human, UniProt O15393 1-492)
# T2 sequence (O15393 whole entry): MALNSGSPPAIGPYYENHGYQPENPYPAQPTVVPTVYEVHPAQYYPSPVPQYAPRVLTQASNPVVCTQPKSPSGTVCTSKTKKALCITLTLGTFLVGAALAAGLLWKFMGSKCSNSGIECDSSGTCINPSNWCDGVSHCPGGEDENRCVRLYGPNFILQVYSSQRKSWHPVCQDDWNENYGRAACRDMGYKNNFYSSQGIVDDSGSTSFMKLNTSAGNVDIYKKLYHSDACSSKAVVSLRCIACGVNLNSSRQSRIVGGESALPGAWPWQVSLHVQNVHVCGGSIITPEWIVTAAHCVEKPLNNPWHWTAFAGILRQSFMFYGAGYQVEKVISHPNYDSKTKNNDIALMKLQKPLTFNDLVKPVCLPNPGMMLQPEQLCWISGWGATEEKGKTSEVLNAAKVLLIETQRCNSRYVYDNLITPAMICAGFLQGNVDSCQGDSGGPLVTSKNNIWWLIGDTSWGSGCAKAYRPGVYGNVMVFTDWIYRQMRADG
# [3] = biological target: T3, activated hepsin (#4776-SE-010, R&D Systems) (UniProt P05981 45-417, limits assumed)
# T3 sequence (P05981 45-417 limits assumed): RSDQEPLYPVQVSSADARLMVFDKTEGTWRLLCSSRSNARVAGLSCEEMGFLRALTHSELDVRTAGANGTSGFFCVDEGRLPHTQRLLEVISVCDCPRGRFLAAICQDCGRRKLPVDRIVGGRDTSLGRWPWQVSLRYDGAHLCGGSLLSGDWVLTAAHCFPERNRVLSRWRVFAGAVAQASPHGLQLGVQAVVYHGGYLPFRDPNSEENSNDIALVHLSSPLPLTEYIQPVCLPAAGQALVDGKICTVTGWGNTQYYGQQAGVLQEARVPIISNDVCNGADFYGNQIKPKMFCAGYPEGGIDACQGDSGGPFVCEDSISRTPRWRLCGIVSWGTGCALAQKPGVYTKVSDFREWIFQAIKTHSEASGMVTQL
# [4] = biological target: T4, recombinant N-terminal His-tag HGFA serine protease domain (UniProt Q04756 373-655)
# T4 sequence (looked up): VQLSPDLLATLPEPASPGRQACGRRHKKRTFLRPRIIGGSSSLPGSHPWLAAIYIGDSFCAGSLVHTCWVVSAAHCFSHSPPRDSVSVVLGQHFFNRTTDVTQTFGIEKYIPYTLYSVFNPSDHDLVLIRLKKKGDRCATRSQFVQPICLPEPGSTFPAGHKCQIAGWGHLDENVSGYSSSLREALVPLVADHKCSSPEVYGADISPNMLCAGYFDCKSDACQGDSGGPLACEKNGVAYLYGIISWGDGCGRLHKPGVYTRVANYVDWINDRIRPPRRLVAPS
# [5] = biological target: T5, matriptase (#3946-SE-010, R&D Systems) (UniProt Q9Y5Y6 615-855)
# T5 sequence (looked up): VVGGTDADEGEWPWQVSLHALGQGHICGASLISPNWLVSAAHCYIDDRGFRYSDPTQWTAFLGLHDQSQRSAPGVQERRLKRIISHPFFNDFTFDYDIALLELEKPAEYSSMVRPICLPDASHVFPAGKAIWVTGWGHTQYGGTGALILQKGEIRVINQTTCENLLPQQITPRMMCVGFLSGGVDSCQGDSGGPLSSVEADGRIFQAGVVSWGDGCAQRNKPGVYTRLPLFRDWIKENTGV
# [6] = biological target: T2, human TMPRSS2; remark: listed apart in the source
# [7] = biological target: T6, Factor Xa (#1063-SE-010, R&D Systems) (UniProt P00742 41-488, limits assumed)
# T6 sequence (P00742 41-488 limits assumed): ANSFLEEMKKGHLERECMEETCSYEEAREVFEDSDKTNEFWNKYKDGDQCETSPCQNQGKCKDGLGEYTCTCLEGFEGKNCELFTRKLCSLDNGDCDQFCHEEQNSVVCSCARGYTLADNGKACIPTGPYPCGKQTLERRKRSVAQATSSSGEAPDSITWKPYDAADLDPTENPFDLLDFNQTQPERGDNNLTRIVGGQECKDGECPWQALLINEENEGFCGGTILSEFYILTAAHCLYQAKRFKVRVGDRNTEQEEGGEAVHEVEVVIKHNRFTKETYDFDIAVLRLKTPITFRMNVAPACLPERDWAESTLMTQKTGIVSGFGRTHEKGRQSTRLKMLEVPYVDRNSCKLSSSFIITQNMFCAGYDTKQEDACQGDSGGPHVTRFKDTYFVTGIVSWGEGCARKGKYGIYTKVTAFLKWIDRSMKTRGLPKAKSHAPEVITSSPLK
# [8] = biological target: T3, activated hepsin (#4776-SE-010, R&D …); remark: listed apart in the source
# [9] = biological target: T4, recombinant N-terminal His-tag HGFA …; remark: listed apart in the source
# [10] = biological target: T7, recombinant thrombin (#1473-SE-010, R&D Systems) (UniProt P00734 44-622)
# [11] = biological target: T5, matriptase (#3946-SE-010, R&D Systems); remark: listed apart in the source
# [12] = biological target: T6, Factor Xa (#1063-SE-010, R&D Systems); remark: listed apart in the source
# [13] = biological target: T3, activated hepsin (#4776-SE-010, R&D …); remark: listed apart in the source
# [14] = biological target: T4, recombinant N-terminal His-tag HGFA …; remark: listed apart in the source
# [15] = biological target: T7, recombinant thrombin (#1473-SE-010, R&D …); remark: listed apart in the source
# [16] = biological target: T5, matriptase (#3946-SE-010, R&D Systems); remark: listed apart in the source
Binder,KLK5 IC50 [1] [nM],"IC50, cell-based TMPRSS2 fluorogenic enzyme inhibition assay [2] [nM]",Hepsin IC50 [3] [nM],HGFA IC50 [4] [nM],Matriptase IC50 [5] [nM],Calu-3 EC50 [6] [nM],Factor Xa* (IC50 nM) [7] [nM],Hepsin (IC50 nM) [8] [nM],HGFA (IC50 nM) [9] [nM],Thrombin* (IC50 nM) [10] [nM],Matriptase (IC50 nM) [11] [nM],Factor Xa IC50 [12] [nM],Hepsin IC50 [13] [nM],HGFA IC50 [14] [nM],Thrombin IC50 [15] [nM],Matriptase IC50 [16] [nM]
"Ac-DLKR-kbt (lactam 1-3; not fully specified; printed as Cyclo(DLK)R-kbt; also: N-terminal acetyl described as 6-acetamido) [Cyclo(DLK)R-kbt, VD2173]",193,6.9,10,5260,1.4,104,564,8.4,3590,700,0.28,,,,,
X2-Leu-Arg-kbt [1-(ethylsulfonyl)piperidin-4-yl Leu-Arg-kbt carbamate (8h)],,,,,,,,,,,,> 20000,10,> 20000,> 20000,730
"Ac-SKLR-{kbt-Val-NH2} [Ac-SKLR kbt V-amide, ZFH7116]",137,51,0.5,26,11,307,,,,,,,,,,
{phenyl(piperidin-4-yl)methyl carbamate}-Leu-Arg-kbt [phenyl(piperidin-4-yl)methyl Leu-Arg-kbt carbamate (11a)],,,,,,,,,,,,> 20000,8,14000,> 20000,1100
